Experimental data reported in paper PMC2701625 (Biochemistry, 2009).

Molecular target: the molecule itself
Assay: cross-linking

B1: GST-hHsp90-N520 (GST tagged human hsp90β truncation, residues 520-724) (domain or fragment)
chain: not shown
  stoichiometry N: 4
